The record followed here is patent publication US20130129739A1 (Bayer, published 2013).

Sequences and labels used below:
B1: 002-H08 (Fab format) (Fab, V domains shown)
VH: QVELLESGGGLVQPGGSLRLSCAASGFTFSSYGMHWVRQAPGKGLEWVSGVSWNGSRTHYADSVKGRLTISRDNSKNTLYLQMNSLRAEDTAVYYCARGGDFDYWGQGTLVTVSS
VL: QSVLTQPPSASGTPGQRVTISCSGSSSNIGSNDVYWYQQLPGTAPKLLIYDNNKRPSGVPDRFSGSKSGTSASLAISGLRSEDEADYYCQSYDSSLSGSWVFGGGTKLTVLG
B2: 006-H07 (scFv format) (scFv, V domains shown)
VH: QVELLESGGGLVQPGGSLRLSCAASGFTFEDHGMSWVRQAPGKGLEWVSLISWDDGSNKYYADSVKGRFTISRDNSKNTLYLQMNSLRAEDTAVYYCATSLRATAFDTWGQGTLVTVSS
VL: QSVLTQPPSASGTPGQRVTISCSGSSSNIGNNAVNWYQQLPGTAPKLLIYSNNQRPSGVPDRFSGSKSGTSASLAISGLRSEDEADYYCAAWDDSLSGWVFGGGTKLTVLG
B3: 006-H08 (scFv format) (scFv, V domains shown)
VH: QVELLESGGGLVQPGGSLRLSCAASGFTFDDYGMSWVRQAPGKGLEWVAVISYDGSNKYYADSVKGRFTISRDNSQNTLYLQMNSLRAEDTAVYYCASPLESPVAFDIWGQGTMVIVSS
VL: DIVLTQPPSASGTPGQRVTISCSGSNSNIGSNPVNWYQQLPGTAPKLLIYDNNKRPSGVPDRFSGSKSGTSASLAISGLRSEDEADYYCQSYDTGLSGWVFGGGTKLTVLG
B4: 001-E06 (Fab format) (Fab, V domains shown)
VH: QVELLESGGGLVQPGGSLRLSCAASGFTFSSYWMSWVRQAPGKGLEWVSSVSDTGTDTHYADSVKGRFTISRDNSKNTLYLQMNSLRAEDTAVYYCAKTPLAYSSGWYYFDYWGQGTLVTVSS
VL: B3 VL with N26S, P33T, D51R, N53Y, K54Q, T94S, G95S, W99S
B5: 002-H06 (Fab format) (Fab, V domains shown)
VH: QVELLESGGGLVQPGGSLRLSCAASGFTFANYGLTWVRQAPGKGLEWVAVISFNGDKKYYADSVKGRFTISRDNSKNTLYLQMNSLRAEDTAVYYCASPLESPVAFDIWGQGTLVTVSS
VL: B3 VL with D1Q, I2S, N26Y, S31G, D51G, N53S, K54N, T94S, G95S, W99S
B6: 005-C04-L2-1-40-2 (Fab, V domains shown)
VH: EVQLLESGGGLVQPGGSLRLSCAASGFTFSSYWNHWVRQAPGKGLEWVSDISRASPYTGYADSVKGRFTISRDNSKNTLYLQMNSLRAEDTAVYYCARGLDARRMDYWGQGTLVTVTS
VL: QSVLTQPPSASGTPGQRVTISCTGSSSNIGAGYVVHWYQQLPGTAPKLLIYRNNQRQSGVPDRFSGSKSGTSASLAISGLRSEDEADYYCAAWDDSLNGWLFGGGTKLTVLG
notes: Maturated 005-C04 variant; Fab in E. coli supernatant, flag-detected
B7: 005-C04-48-1 (Fab, V domains shown)
VH: B6 VH with P56S, G59N
VL: B6 VL with A31Y, Q57P
notes: as for B6
B8: 005-C04-L2-1-42-0 (Fab, V domains shown)
VH: B6 VH with S52A, P56S
VL: B6 VL with Q55W
notes: as for B6
B9: 005-C04-L2-1-47-0 (Fab, V domains shown)
VH: B6 VH with A54L, G59N
VL: B6 VL with Q55W, Q57P
notes: as for B6
B10: 005-C04-L2-1-48-3 (Fab, V domains shown)
VH: B6 VH with G59N
VL: B6 VL
notes: as for B6
B11: 005-C04-L2-1-40-7 (Fab, V domains shown)
VH: B6 VH with S52A, R53S, P56S
VL: B6 VL with Q55W
notes: as for B6
B12: 002-H08 (antibody, V domains shown)
VH: B1 VH
VL: B1 VL
notes: Tested as human IgG1
B13: 002-H06 (antibody, V domains shown)
VH: B5 VH
VL: B3 VL with D1Q, I2S, N26Y, S31G, D51G, N53S, K54N, T94S, G95S, W99S
notes: Tested as human IgG1
B14: 001-E06 (antibody, V domains shown)
VH: B4 VH
VL: B3 VL with N26S, P33T, D51R, N53Y, K54Q, T94S, G95S, W99S
notes: Tested as human IgG1
B15: XHA06.983 (antibody, V domains shown)
VH: DVQLVESGGGLVQPGGSRKLSCAASGFAFSSFGMQWVRQAPEKGLEWVAYISSGSSTIYYADTVKGRFTISRDNPKNTLFLQMTSLRSEDTAMYYCVRSGRDYWGQGTSVTVSS
VL: SIVMTQTPKFLLVSAGDRVTITCKASQGVSNDVAWFQQKPGQSPKLLIYSASTRYTGVPDRLTGSGYGTDFTFTINTVQAEDLAVYFCQQDYTSPTFGGGTKLEIKR
notes: Novartis antibody (WO2008/022295)

Substitutions are numbered along the chain they refer to. Values joined by “and” are separate entries in the source; they are usually repeats but may differ in a detail not shown here. Equal values may be shown once.

The first experiment concerns the target T1, human prolactin receptor (PRLR) on cells (human, UniProt P16471 25-622).
T1 sequence (looked up): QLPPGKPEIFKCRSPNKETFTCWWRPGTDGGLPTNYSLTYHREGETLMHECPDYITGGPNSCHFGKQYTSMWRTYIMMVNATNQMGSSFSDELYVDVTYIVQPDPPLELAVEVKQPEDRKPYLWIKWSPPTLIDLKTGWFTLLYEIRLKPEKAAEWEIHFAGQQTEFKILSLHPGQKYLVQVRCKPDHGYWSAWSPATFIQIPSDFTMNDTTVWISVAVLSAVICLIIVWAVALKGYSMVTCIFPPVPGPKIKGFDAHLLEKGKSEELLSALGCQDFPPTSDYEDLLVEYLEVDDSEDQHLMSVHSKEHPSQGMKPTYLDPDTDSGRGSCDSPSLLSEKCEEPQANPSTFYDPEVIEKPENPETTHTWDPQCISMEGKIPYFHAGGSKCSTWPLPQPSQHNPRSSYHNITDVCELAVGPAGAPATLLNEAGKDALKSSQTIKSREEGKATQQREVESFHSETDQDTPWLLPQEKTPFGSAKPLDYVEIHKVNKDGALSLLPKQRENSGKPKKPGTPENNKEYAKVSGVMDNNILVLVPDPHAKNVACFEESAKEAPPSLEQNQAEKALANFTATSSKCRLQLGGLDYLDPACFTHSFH
The experiment is described as follows: cell-based or functional assay.
For the molecule B1, the “Inhibition of phosphorylation of ERK1/2 in % at 7.5 µg/ml (ELISA, prolactin-treated T47D lysates)” value came out at 100%; the “Inhibition of phosphorylation of PRLR in % at 7.5 µg/ml (ELISA, prolactin-treated T47D lysates)” value is 100%; the “Inhibition of phosphorylation of STAT5 in % at 7.5 µg/ml (ELISA, prolactin-treated T47D lysates)” value came to 98%.

In the case of B2, the “Inhibition of phosphorylation of ERK1/2 in % at 7.5 µg/ml (ELISA, prolactin-treated T47D lysates)” value is 85%; the “Inhibition of phosphorylation of PRLR in % at 7.5 µg/ml (ELISA, prolactin-treated T47D lysates)” value was determined as 88%; the “Inhibition of phosphorylation of STAT5 in % at 7.5 µg/ml (ELISA, prolactin-treated T47D lysates)” value was found to be 73%.

As for B3, the “Inhibition of phosphorylation of ERK1/2 in % at 7.5 µg/ml (ELISA, prolactin-treated T47D lysates)” value worked out at 100%; the “Inhibition of phosphorylation of PRLR in % at 7.5 µg/ml (ELISA, prolactin-treated T47D lysates)” value was 100%; the “Inhibition of phosphorylation of STAT5 in % at 7.5 µg/ml (ELISA, prolactin-treated T47D lysates)” value came to 100%.

B4: the “Inhibition of phosphorylation of ERK1/2 in % at 7.5 µg/ml (ELISA, prolactin-treated T47D lysates)” value is 45%; the “Inhibition of phosphorylation of PRLR in % at 7.5 µg/ml (ELISA, prolactin-treated T47D lysates)” value came to 63%; the “Inhibition of phosphorylation of STAT5 in % at 7.5 µg/ml (ELISA, prolactin-treated T47D lysates)” value turned out to be 36%.

Take B5: the “Inhibition of phosphorylation of ERK1/2 in % at 7.5 µg/ml (ELISA, prolactin-treated T47D lysates)” value is 86%; the “Inhibition of phosphorylation of PRLR in % at 7.5 µg/ml (ELISA, prolactin-treated T47D lysates)” value stood at 92%; the “Inhibition of phosphorylation of STAT5 in % at 7.5 µg/ml (ELISA, prolactin-treated T47D lysates)” value came out at 72%.

A further experiment deals with T2, extracellular domain of human PRLR (monomeric, soluble) (human, UniProt P16471 25-234).
T2 construct: also called ECD-PRLR; ECD of PRLR
T2 sequence: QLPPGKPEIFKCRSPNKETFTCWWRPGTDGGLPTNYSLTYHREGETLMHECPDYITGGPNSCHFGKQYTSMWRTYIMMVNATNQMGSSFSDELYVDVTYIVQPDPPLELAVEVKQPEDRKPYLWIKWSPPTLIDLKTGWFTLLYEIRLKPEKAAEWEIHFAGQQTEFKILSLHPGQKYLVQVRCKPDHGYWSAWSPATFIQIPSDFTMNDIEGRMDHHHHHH
Put plainly: ELISA: plate coated with human PRLR extracellular domain, Fab-containing E. coli supernatant, anti-flag-HRP, Amplex Red. Here is the method: 96 well microtiter plates were coated with 1 μg per milliliter of human PRLR. Plates were incubated over night at 4° C. After blocking with PBS buffer containing 3% bovine serum albumin, normalized E. coli-derived supernatants containing the Fab variants were added. Detection of formed complexes occurred via the addition of an anti-flag antibody (Sigma, A8592) labeled with horseradish peroxidase.
Background: ELISA stands for enzyme-linked immunosorbent assay.
Regarding B6, the binding result is given as “binds”.

Take B7: the binding result was “binds”.

As for B8, the binding result is “binds”.

With B9, the binding result is given as “binds”.

Turning to B10, the binding result was “binds”.

For B11, the binding result is listed as “binds”.

The target in the next experiment is T2, extracellular domain of human PRLR …. The experiment is described as follows: SPR (Biacore), IgG1 directly immobilized, monomeric human PRLR ECD from HEK293 as analyte. A general note: Surface plasmon resonance follows binding to a sensor surface in real time, without labels.
For the molecule B12, the dissociation constant (Kd) came to 1.8 nM and the koff worked out at 0.0002 s⁻¹.

In the case of B13, the Kd was found to be 2.7 nM and the koff was 0.00054 s⁻¹.

In the case of B14, the Kd stood at 15.8 nM and the koff was determined as 0.0048 s⁻¹.

For the molecule B15, the equilibrium dissociation constant (Kd) turned out to be 0.2 nM and the koff was found to be 0.00017 s⁻¹.

In another experiment the target is T1, human prolactin receptor (PRLR) on cells. Put plainly: cell-based or functional assay. The source holds these as a separate data set.
Regarding B12, the “IC50, inhibition of prolactin-activated Ba/F cell proliferation (human PRLR)” value is 4.8 nM and 0.72 µg/ml.

B13: the “IC50, inhibition of prolactin-activated Ba/F cell proliferation (human PRLR)” value is 0.54 µg/ml and 3.6 nM.

The next experiment deals with T3, rat prolactin receptor (PRLR) on Nb2 lymphoma cells (rat, UniProt P05710 20-610).
T3 construct: whole, on cells; also called rat PRLR
T3 sequence (looked up): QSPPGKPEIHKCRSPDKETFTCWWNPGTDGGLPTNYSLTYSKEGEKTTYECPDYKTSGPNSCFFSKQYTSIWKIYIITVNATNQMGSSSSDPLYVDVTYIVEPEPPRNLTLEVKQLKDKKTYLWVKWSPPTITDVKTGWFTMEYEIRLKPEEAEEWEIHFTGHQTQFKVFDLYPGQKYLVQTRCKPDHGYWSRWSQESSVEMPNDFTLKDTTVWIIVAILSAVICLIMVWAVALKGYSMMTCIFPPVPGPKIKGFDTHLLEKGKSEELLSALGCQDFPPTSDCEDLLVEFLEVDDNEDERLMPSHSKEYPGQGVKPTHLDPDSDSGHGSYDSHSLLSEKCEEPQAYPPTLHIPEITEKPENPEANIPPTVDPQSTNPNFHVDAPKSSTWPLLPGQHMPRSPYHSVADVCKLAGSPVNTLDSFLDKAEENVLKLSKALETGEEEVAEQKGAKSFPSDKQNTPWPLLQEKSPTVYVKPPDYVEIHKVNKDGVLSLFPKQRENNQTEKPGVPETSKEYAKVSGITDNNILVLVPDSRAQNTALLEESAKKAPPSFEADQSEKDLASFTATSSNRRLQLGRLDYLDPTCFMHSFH
Put plainly: FACS on rat lymphoma cell line Nb2, IgG1.
B14 had an EC50 of 1.2 nM.

As to B15, the binding result is “no binding”.

For another experiment, the target named is T1, human prolactin receptor (PRLR) on cells. Put plainly: FACS on human breast cancer cell line T47D, IgG1.
B14 showed a half-maximal effective concentration (EC50) of 1.8 nM.

B15 gave an EC50 of 0.3 nM.

As a reminder, the Kd is a measure of binding affinity in units of concentration. High values mean a looser complex, low ones a tighter complex. Usually koff stands for the first-order rate constant of dissociation. Low values mean a long-lived complex, high ones a short-lived complex. For orientation: EC50 means the concentration that produces a half-maximal response. Read a high EC50 as lower potency in that assay.
